Laboratory results published in patent US12508311B2, “Fusion protein, and preparation method and use thereof” (SUN YAT-SEN UNIVERSITY, priority 2021, dated 2025).

Experiments:
[1] = molecular target: T1, KRas protein in HT29 (KRas wt) cells (Homo sapiens, UniProt P01116); experiment: Co-immunoprecipitation (Co-IP) in HT29 cells; format: cell-based; details: 20 μg/mL, 24 hours, Lys05 10 μM
T1 construct: host or cells: HT29
Description: The co-immunoprecipitation experiment (Co-IP) was an important means to detect the intracellular interaction of the protein. […] The experiment was carried out in the presence of the lysosome inhibitor Lys05 with a final concentration of 10 μM. • (2) The cells were cultured and treated at 37° C. for 24 hours, and then cleaned twice with PBS, and 1 mL of 0.25% pancreatin was added into each culture dish to digest the cells and make the cells fall off from the culture dish wall. Then, 2 mL of complete culture solution was added into each culture dish to stop the digestion , centrifuged at the room temperature and 300 g for 3 minutes, to collect the cells. […] The colorectal cancer cells were lysed on ice, turned upside down for several times every 5 minutes gently without vortex, and centrifuged at 4° C. and 12,000 rpm for 30 minutes after being lysed for 30 minutes. • (4) The supernatant was transferred to a new EP tube, the protein concentration was measured by the BCA method, and then 1 mg of protein was taken from each group for a Co-IP reaction. […] Meanwhile, 30 μL of protein sample was also taken from the Input group, vortically vibrated for 1 minute, boiled in boiled water for 10 minutes, and centrifuged, and the supernatant was collected in a new 1.5 mL EP tube. • (8) The protein concentration was measured by the BCA method. […]

[2] = tested on: signal pathway KRas/Raf/ERK/c-myc in KRas wild-type cells HT29; experiment: Western blot of EGFR downstream signal pathway, HT29; format: cell-based, human; details: 10 and 20 μg/mL, 24 hours, compared with control TKDm
Description: • (1) The colorectal cancer cells HCT116 (KRas G13D) and HT29 (KRas wt) were respectively spread in six-well plates, 500,000 cells per well. […] Then, the digestion was stopped with 1 mL of complete culture solution per well, the cell suspension was collected into a 1.5 mL EP tube, and centrifuged at the room temperature and 300 g for 3 minutes to collect cells. The cells were resuspended with 1 mL of PBS, and repeatedly centrifuged once. • (3) The supernatant was removed, 100 μL of lysate was added in each group (item number: P0013G; purchased from Beyotime Biotechnology Company). The cells were lysed on ice, vortically vibrated every 5 minutes, and centrifuged at 4° C. and 12,000 rpm for 30 minutes after being lysed for 30 minutes, and the supernatant was collected in a new 1.5 mL EP tube. • (4) The protein concentration was measured by the BCA method, and 20 μg of protein was taken from each group for SDS denaturation gel electrophoresis, transferred and blocked with 5% skim milk for 1 hour.

[3] = Toxic and side effects in mice (body weight, HE histopathology); format: in vivo; details: 25 and 50 mg/kg intraperitoneal, seven times (3 weeks)
Description: • (1) Balb/c nude mice, female, 4 weeks to 5 weeks old, purchased from Guangdong Laboratory Animal Center and raised in Laboratory Animal Center of Sun Yat-sen University, were used in this experiment. […] The mice were administered once every three days at a fixed time. Meanwhile, changes in body state, mental state and weight of the mice were observed and recorded. • (3) After continuous administration for seven times (3 weeks), the mice were euthanized (killed by cervical dislocation). […] All the animal experiments were carried out within relevant regulations of animal ethics of Sun Yat-sen University.

[4] = tested on: normal intestinal epithelial cells FHC; experiment: Flow cytometry of tumor cell targeting, normal cells FHC; format: cell-based, human; details: tested as 60 nM TKD-Cy5, 1 hour, Lys 05 10 μM
Description: Wherein, the protein C18 column (25 cm×10 mm) was used, with sample injection of 2×400 μL each time, and gradient elution was carried out for 30 minutes, 0.1% TFA (trifluoroacetic acid) solution to MeCN (acetonitrile): H2O (0.1% TFA)=70:30, and a flow rate was 4 mL/min. • (4) Target color tape peaks were collected, and the retention time of a labeled polypeptide was longer than that of an unlabeled polypeptide. • (5) The TKD-Cy5 molecule was diluted to 60 μM, and stored in a PBS solution, and kept in the dark at −20° C. 2. […] The cells were treated with corresponding drugs, namely, in the experimental groups, the cells were treated with 60 nM TKD-Cy5 coupling molecule, and in the control groups, the cells were treated with the Cy5 single molecule with corresponding concentration. The lysosome inhibitor Lys 05 with the final concentration of 10 μM was added into the control groups and the experimental groups at the same time, and the final volume of the culture solution in each well was 1 mL. […] The cells were resuspended with the PBS buffer solution, and centrifuged again, and the supernatant was discarded. The operation was repeated for three times. Finally, the cleaned cells were resuspended in 0.2 mL of PBS, wrapped with foil paper, and then analyzed on the flow cytometer (company: BECKMAN COULTER; model: Cytoflex), with the fluorescence channel of APC-A.

B1: TKD: fusion protein: tumour-cell-penetrating peptide BR2, anti-KRas nanobody VHH and lysosome recognition peptide CTM; SEQ ID NO.4 (protein)
chain: RAGLQFPVGRLLRRLLRDVQLQESGGGLVQAGGSLRLSCVASGRTFSTYPTGWFRQAPGKEREFVARINLSGGITNYADSVKGRFTISRDNAKNTVYLQMNSLKPEDTAVYYCGGGSTTWAGGIPTNFDYWGQGTQVTVSSGRKFERQKILDQRFFE
binding to KRas protein in cells (Co-IP) [1]: could pass through the cell membrane and bind to the wild-type and mutant-type KRas proteins in cells without discrimination | inhibition of activation of EGFR downstream signal pathway KRas/Raf/ERK/c-myc (western blot) [2]: could significantly inhibit the activation of the EGFR downstream signal pathway KRas/Raf/ERK/c-myc | changes in body weight ([3]; once every three days, vs PBS): did not show obvious changes in body weight | pathological analysis of lung, liver, spleen and kidney (HE) [3]: did not damage vital organs including lung, liver, spleen and kidney of the mice | entry into cells (flow cytometry, Cy5 fluorescence) [4]: could not enter the normal colorectal epithelial cells
